Results as given in patent publication US7049395 (YALE UNIVERSITY, dated 2006).

T1: FLAG-tagged IKKβ (human, UniProt O14920 1-756)
T1 construct: expressed in transfected COS, HEK293 or HeLa cells; also called IKKβ-FLAG; FLAG-IKKβ
T1 sequence (looked up): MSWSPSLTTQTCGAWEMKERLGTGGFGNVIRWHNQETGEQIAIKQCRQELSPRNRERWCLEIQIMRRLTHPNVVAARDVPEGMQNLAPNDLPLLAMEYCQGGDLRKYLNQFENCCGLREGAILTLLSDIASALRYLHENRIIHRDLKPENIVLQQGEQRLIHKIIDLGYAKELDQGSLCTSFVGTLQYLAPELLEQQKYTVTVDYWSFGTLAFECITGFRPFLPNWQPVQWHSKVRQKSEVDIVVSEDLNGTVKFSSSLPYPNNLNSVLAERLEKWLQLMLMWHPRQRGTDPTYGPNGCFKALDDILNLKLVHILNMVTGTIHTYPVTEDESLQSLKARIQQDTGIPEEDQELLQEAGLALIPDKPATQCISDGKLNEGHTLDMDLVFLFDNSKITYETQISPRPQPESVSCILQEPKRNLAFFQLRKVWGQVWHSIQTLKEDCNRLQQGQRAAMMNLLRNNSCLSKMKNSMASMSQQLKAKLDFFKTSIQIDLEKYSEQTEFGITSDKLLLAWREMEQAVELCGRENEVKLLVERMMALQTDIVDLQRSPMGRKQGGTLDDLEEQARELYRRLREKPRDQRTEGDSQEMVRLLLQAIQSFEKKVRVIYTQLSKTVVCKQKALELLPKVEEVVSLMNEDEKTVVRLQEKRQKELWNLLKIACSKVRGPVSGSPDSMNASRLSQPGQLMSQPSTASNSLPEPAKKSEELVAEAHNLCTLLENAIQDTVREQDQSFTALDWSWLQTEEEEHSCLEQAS

B1: NEMO-(197-419) (other, human, UniProt Q9Y6K9 197-419, looked up)
chain: VQVDQLRMQGQSVEAALRMERQAASEEKRKLAQLQVAYHQLFQEYDNHIKSSVVGSERKRGMQLEDLKQQLQQAEEALVAKQEVIDKLKEEAEQHKIVMETVPVLKAQADIYKADFQAERQAREKLAEKKELLQEQLEQLQREYSKLKASCQESARIEDMRKRHVEVSQAPLPPAPAYLSSPLALPSQRRSPPEEPPDFCCPKCQYQAPDMDTLQIHVMECIE
notes: range 197-419; [35S]-labelled in vitro translated; also transfected in COS or HEK293 cells
B2: NEMO-(1-196) (other, human, UniProt Q9Y6K9 1-196, looked up)
chain: MNRHLWKSQLCEMVQPSGGPAADQDVLGEESPLGKPAMLHLPSEQGAPETLQRCLEENQELRDAIRQSNQILRERCEELLHFQASQREEKEFLMCKFQEARKLVERLGLEKLDLKRQKEQALREVEHLKRCQQQMAEDKASVKAQVTSLLGELQESQSRLEAATKECQALEGRARAASEQARQLESEREALQQQHS
notes: [35S]-labelled in vitro translated; also transfected in COS or HEK293 cells
B3: IKKβ-(644-756) (enzyme, human, UniProt O14920 644-756, looked up)
chain: VRLQEKRQKELWNLLKIACSKVRGPVSGSPDSMNASRLSQPGQLMSQPSTASNSLPEPAKKSEELVAEAHNLCTLLENAIQDTVREQDQSFTALDWSWLQTEEEEHSCLEQAS
B4: GST-IKKβ-(644-756) (other, human, UniProt O14920 644-756, looked up)
chain: B3 chain
notes: bacterially expressed; not shown: glutathione S-transferase (GST) as encoded by vector pGEX-4T1 (Pharmacia)

Key:
FLAG-tagged IKKβ = target: T1, FLAG-tagged IKKβ; test: co-immunoprecipitation from transfected COS or HEK293 cells
Procedure: For all immunoprecipitations HeLa or COS cells grown in six well trays were lysed in 500 µl TNT. FLAG-tagged proteins were precipitated from lysate of transfected cells for two hours at 4° C. using 20 µl of anti-FLAG (M2)-conjugated agarose beads (Sigma). […] For immunoblotting, precipitates were washed three times with TNT, twice with PBS then suspended in SDS-sample buffer. Proteins were separated by SDS-PAGE (10%), transferred to PVDF membranes and visualized by enhanced chemiluminesence (Amersham-Pharmacia).

GST alone [1] = target: T2, GST alone (UniProt P08515 1-218 = GST); test: GST pull-down of [35S]-labelled NEMO truncations
T2 construct: control bait in the GST pull-downs
Description: (§1) Equal amounts of each protein were used for subsequent GST pull-down analyses.

GST alone [2] = target: T2, GST alone; test: GST pull-down of in vitro translated protein
NEMO-(86-419) = target: T3, NEMO-(86-419) (human, UniProt Q9Y6K9 86-419); test: GST pull-down with GST-IKKβ-(644-756)
T3 construct: range 86-419; [35S]-labelled in vitro translated; also transfected in COS or HEK293 cells
Description: as §1

NEMO-(197-419) = target: B1; test: GST pull-down with GST-IKKβ-(644-756)
Description: as §1

T2 sequence (P08515 whole entry, the tested form may be a part): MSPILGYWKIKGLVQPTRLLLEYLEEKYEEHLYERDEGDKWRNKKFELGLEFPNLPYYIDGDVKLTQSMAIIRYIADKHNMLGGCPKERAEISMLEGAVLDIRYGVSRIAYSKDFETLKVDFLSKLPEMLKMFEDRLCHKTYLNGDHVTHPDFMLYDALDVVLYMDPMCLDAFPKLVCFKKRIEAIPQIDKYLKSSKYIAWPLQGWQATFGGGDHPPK

Binder: B1
- binding result (FLAG-tagged IKKβ): no binding

Binder: B2
- binding result (GST alone [1]): no binding

Binder: B3
- binding result (GST alone [2]): no binding

Binder: B4
- binding result (NEMO-(86-419)): no binding
- binding result (NEMO-(197-419)): no binding
